# Measurements published in patent publication US20120245221A1, “ANTI-APOPTOTIC AGENTS AND USES THEREOF” (priority 2009, published 2012).
# Assays:
# Schwann cells [1] = assay: TNF-α and TGF-β induced apoptosis, TUNEL assay; type: cell-based, human; settings: TNF-α 20 ng/ml and TGF-β 40 ng/ml
# Procedure: (§1) Infected Schwann cells, Sc-Red cells, and Sc-PDNF cells were treated for 24 hours with 100 to 500 μM H2O2 with or without pretreatment with the Akt inhibitor Akti VIII (10 μM), fixed, and visualized by fluorescence microscopy after staining with DAPI and TUNEL reagents with the In Situ Cell Death Detection kit (Roche). Cell survival was measured by MTT-based CellTiter kit (Promega). Alternatively, Sc-Red and Sc-PDNF cells were grown for 4 days in DMEM, 1% bovine serum albumin (BSA) with or without TNF-α (20 ng/ml) and TGF-β1 (40 ng/ml) and with or without Akti VIII (10 μM).
# Akt [2] = assay: Akt-dependent phosphorylation of PDNF in Schwann cells (immunoprecipitation with TCN-2, Western blotting); type: cell-based, human
# Procedure: To provide further evidence that the phosphorylation of PDNF depended on host […], T. cruzi-infected Schwann cells were treated with LY294002, a pharmacological inhibitor of PI3K, which phosphorylates and activates Akt (10), and with Akti VIII, a specific allosteric inhibitor of Akt that prevents the phosphorylation of Akt at Ser^473 and Thr^308, which is critical for the activation of Akt (25). Lysates of treated cells were assayed for phosphorylated Akt (pAkt) and, after immunoprecipitation with a PDNF-specific antibody, for the presence of Akt-phosphorylated substrates. […] The conclusion that PDNF was a substrate of Akt was further reinforced by in vitro kinase assays.
# (§2) Cell monolayers were lysed with lysis buffer (20 mM tris-HCl (pH 7.5), 150 mM NaCl, 1 mM EDTA, 1% Triton X-100, 2.5 mM sodium pyrophosphate, 1 mM glycerophosphate, 1 mM Na3VO4, 1 μg/mL leupeptin and 1 mM phenylmethylsulfonyl fluoride (PMSF)) on ice for 10 min, cleared by centrifugation (12,000×g for 10 min at 4° C.) and immunoprecipitated with an antibody specific for Akt-phosphorylated substrate or with TCN-2 at 4° C. overnight Immunoprecipitates were collected with protein G-Sepharose for 2 hours at 4° C., washed with lysis buffer, and resuspended in SDS-sample buffer for SDS-PAGE and Western blotting analysis. In other experiments, total cell lysates (30 to 50 μg of protein) were resolved by SDS-PAGE, transferred to nitrocellulose membranes, and incubated with the relevant primary antibodies, followed by incubation with HRP-conjugated secondary antibody and visualization by ECL.
# Schwann cells [3] = type: cell-based, human; settings: 100 μM H2O2, 24 hours
# Procedure: (§3) Immortalized human Schwann cells (54) were maintained in DMEM supplemented with 10% FCS and penicillin/streptomycin at 37° C. in 5% CO2. Infections were performed with T. cruzi trypomastigotes (Silvio strain) at 2×10^5 parasites/ml or at a parasite:cell ratio of 50:1. After 2 or 3 hours, monolayers were washed to remove unattached parasites and cells were then maintained in medium containing 2% FCS for 3 to 5 days to complete the intracellular infection cycle.
# as §1
# Schwann cells [4] = assay: H2O2-induced apoptosis, TUNEL assay; type: cell-based, human
# Procedure: as §1
# [5] = test system: bacterially-expressed PDNF (recombinant full-length PDNF, clone 19Y, expressed in E. coli)
# [6] = target: Akt kinase, endogenous protein of immortalized human Schwann cells (human) (UniProt P31749); assay: cell-based or functional assay
# Akt3 [7] = assay: cDNA microarray, Sc-PDNF vs Sc-Red cells: Akt3 mRNA; type: cell-based, human; settings: Schwann cells expressing PDNF vs control cells
# Procedure: (§4) These analyses were performed as described previously (55, 56). The concentration and quality of total RNA isolated from Sc-Red cells and Sc-PDNF cells were estimated by spectrophotometry (A260 nm/A280 nm of 1.9 to 2.1) and by agarose gel electrophoresis. Hybridization and data analysis were performed by the Tufts Expression Array Core with cDNAs prepared from Sc-Red cells and Sc-PDNF cells labeled with aminoallyl (aa)-dUTP Cy3 or Cy5 dyes, respectively. The two differently dye-labeled cDNAs were hybridized with the same microarray slide containing 48,500 human genes (Microarrays Inc) for 16 hours. After washing, the slide was scanned at 550 nm and 649 nm for Cy-3 and Cy-5 dyes, respectively, in a ScanArray 4000 scanner (PerkinElmer). Images were overlaid and analyzed with QuantArray spot quantification software (Packard BioChip Technologies). The ratio of both fluorescence intensities for each spot reflected the ratio of each gene expressed in the control and treatment samples. […] For each gene, ratios of red (Cy-5) over green (Cy-3) intensities (I) were calculated and normalized through a Lowess Fit of the log2 ratios (log2(Icy-5/Icy-3)) over the log2 of the total intensity (log2(Icy-5. Icy-3)). Mean ratios were calculated from the duplicate spots, and only values with a covariance (CV) b0.5 were further taken into account. […]
# Akt [8] = assay: Western blotting of pAkt (activation of Akt) in Schwann cells; type: cell-based, human; settings: Schwann cell-expressed PDNF compared to control transfected cells
# Procedure: as §3
# The coding region of the gene encoding PDNF (formerly T. cruzi neuraminidase, or TCNA) was amplified from the TS19y clone (20) with the primers TCNA-F: 5′-[…]-3′ (SEQ ID NO: 11) and TCNA-R: 5′-[…] (SEQ ID NO: 12) (restriction sites for XhoI and SacII are underlined) and inserted into the pIRES2-DsRed-Express vector (Clontech). Selected recombinant plasmids were purified with the Qiagen kit, sequenced at Tufts University Core facility, and used for transfections. Cells were plated at 1×10^5 cells/ml in 100-mm plates 20 hours before their transfection with 10 μg of total DNA per plate with the FuGENE HD transfection reagent (Roche Diagnostics) as recommended by the manufacturer. Transfected cells were selected with G418 (1 mg/ml) and analyzed for the presence of PDNF by Western blotting and trans-sialidase activity assays (26). […]
# Akt3 [9] = assay: Real-time PCR, Sc-PDNF vs Sc-Red cells: Akt3; type: cell-based, human; settings: PDNF-transfected Schwann cells vs control cells
# Procedure: (§5) These assays were performed as described previously (57, 58). In brief, RNA was isolated with the Trizol reagent and chloroform, cDNA was synthesized from 500 ng of total RNA with Superscript III reverse transcriptase primed with random hexamers, and quantitative PCR reactions were performed with QuantiTect SYBR Green PCR kit (Qiagen) on an Applied Biosystems 7300 Real-Time PCR system. Conditions for the PCR reactions were: 95° C. for 15 min, followed by 50 cycles at 94° C. for 15 s, 54° C. for 30 s, and 72° C. for 45 s, concluding with a dissociation stage to measure amplification product specificity. Primers used to calculate Akt expression were synthesized as described previously (57). Experiments were performed in triplicate, and fold differences were calculated by the 2^−ΔΔCt method (ΔΔCt=(Cttarget gene−Ctb-actin)treated−(Cttarget gene−Ctb-actin)untreated) as described previously (58).
# Akt [10] = assay: Coimmunoprecipitation of PDNF and Akt; type: binding; settings: lysates of T. cruzi-infected human Schwann cells, 4 days; IP with mAb TCN-2
# Procedure: We infected Schwann cells with T. cruzi for 2 hours, removed parasites from the medium overlay by washing, and cultured the cells for 4 days to allow intracellular parasites to differentiate, grow, and multiply. Lysates of uninfected and infected Schwann cells were immunoprecipitated with the monoclonal antibody (mAb) TCN-2, which is specific for the C-terminal tandem repeat unit of PDNF (FIG. 1A) (23), and Western blots of these immunoprecipitates were incubated with PDNF— and Akt-specific antibodies.
# as §2
# other protein kinases = assay: cDNA microarray, Sc-PDNF vs Sc-Red cells: other protein kinase mRNAs; type: cell-based, human; settings: Schwann cells expressing PDNF vs control cells
# Procedure: as §4
# caspase-9 = assay: cDNA microarray, Sc-PDNF vs Sc-Red cells: caspase-9 mRNA; type: cell-based, human; settings: PDNF-expressing Schwann cells vs control cells
# Procedure: as §4
# Akt2 = assay: Real-time PCR, Sc-PDNF vs Sc-Red cells: Akt2; type: cell-based, human; settings: PDNF-expressing cells vs control cells, p<0.05
# Procedure: as §5
# [11] = test system: transcription factor FOXO; assay: cDNA microarray, Sc-PDNF vs Sc-Red cells: FOXO mRNA; type: cell-based, human; settings: PDNF-expressing Schwann cells vs control cells
# Procedure: as §4
# [12] = test system: mitochondrial protein BAX; assay: cDNA microarray, Sc-PDNF vs Sc-Red cells: BAX mRNA; type: cell-based, human; settings: PDNF-expressing Schwann cells vs control cells
# Procedure: as §4
# [13] = T. cruzi-infected Schwann cells treated with inhibitor for 24 hours
molecule,measurement,setting,value
O=c1[nH]c2ccccc2n1C1CCN(Cc2ccc(-c3nc4cc5[nH]cnc5cc4nc3-c3ccccc3)cc2)CC1 [Akti VIII],effect of Akt inhibitor on anti-apoptotic effect of intracellular PDNF,Schwann cells [1]; Akti VIII 10 μM,abolished
same,extent of the phosphorylation of PDNF,"Akt [2]; Schwann cells transfected with plasmid encoding PDNF, inhibitor for 24 hours",substantially decreased
same,abundance of activated Akt (pAkt),Akt [2]; [13],reduction in abundance of activated Akt
same,abundance of unphosphorylated PDNF,Akt [2]; [13],did not affect
same,phosphorylation of PDNF,Akt [2]; [13],inhibition of the phosphorylation of PDNF
same,effect of Akt inhibitor on survival-promoting activity of PDNF,Schwann cells [3]; Sc-PDNF cells pretreated with Akti VIII 10 μM,abrogated
same,effect of Akt inhibitor on resistance of infected cells to oxidative stress,Schwann cells [3]; T. cruzi-infected Schwann cells pretreated with Akti VIII 10 μM,lost
"OO [H2O2, hydrogen peroxide]",cell survival of uninfected Schwann cells,Schwann cells [3],only half of the cells survived
same,apoptosis induced in uninfected Schwann cells,"Schwann cells [4]; 100 μM H2O2, 6 hours",~25%
same,uninfected cells with apoptosis-related DNA damage,"Schwann cells [4]; 500 μM H2O2, 24 hours",~90%
"Akt kinase, endogenous protein of immortalized human Schwann cells","in vitro kinase assay: phosphorylation of bPDNF by immuno-purified Akt, Western blot with antibody against Akt-phosphorylated substrates",[5],generated phosphorylated PDNF in vitro in a dose-dependent and ATP-dependent manner
PDNF expressed in the cytosol of human Schwann cells transfected with pIRES2-DsRed-Express carrying,apoptosis (TUNEL assay) of Sc-PDNF cells in TNF-α (20 ng/ml) and TGF-β (40 ng/ml),[6],2.5 % of cells
PDNF expressed in the cytosol of human Schwann cells transfected with pIRES2-DsRed-Express carrying (enzyme),"abundance of pAkt (Ser^473), Western blot with scanning densitometry, Sc-PDNF against control transfected cells",[6],5 fold
same,"abundance of pAkt (Thr^308), Western blot with scanning densitometry, Sc-PDNF against control transfected cells",[6],6 fold
"PDNF: Trypanosoma cruzi membrane-bound neuraminidase/trans-sialidase; clone 19Y expressed in Schwann cell cytosol from pIRES2-DsRed-Express plasmid (protein, listed as Trypanosoma cruzi) MGKTVVVASRMFWLMFFVPLLLAICPSEPAYALAPGSSRVELFKRKNSTVPFEDKAGKVTERVVHSFRLPALVNVDGVMVAIADARYDTSNDNSLIDTVAKYSVDDGETWETQIAIKNSRVSSVSRVVDPTVIVKGNKLYVLVGSYYSSRSYWSSHGDARDWDILLAVGEVTKSTAGGKITASIKWGSPVSLKKFFPAEMEGMHTNQFLGGAGVAIVASNGNLVYPVQVTNKKKQVFSKIFYSEDDGKTWKFGKGRSDFGCSEPVALEWEGKLIINTRVDWKRRLVYESSDMEKPWVEAVGTVSRVWGPSPKSNQPGSQSSFTAVTIEGMRVMLFTHPLNFKGRWLRDRLNLWLTDNQRIYNVGQVSIGDENSAYSSVLYKDDKLYCLHEINTDEVYSLVFARLVGELRIIKSVLRSWKNWDSHLSSICTPADPAASSSESGCGPAVTTVGLVGFLSGNASQNVWEDAYRCVNASTANAERVRNGLKFAGVGGGALWPVSQQGQNQRYRFANHAFTLVASVTIHEAPRAASPLLGASLDSSGGKKLLGLSYDEKHQWQPIYGSTPVTPTGSWETGKRYHLVLTMANKIGSVYIDGELLEGSGQTVVPDGRTPDISHFYVGGYKRSDMPTISHVTVNNVLLYNRQLNTEEIRTLFLSQDLIGTEAHM",Akt3 mRNA more abundant,Akt3 [7],~3 fold
same,increase in the abundance of pAkt (Ser473),Akt [8],five-fold
same,increase in the abundance of pAkt (Thr308),Akt [8],six-fold
same,cells that underwent apoptosis (TUNEL-positive),"Schwann cells [1]; PDNF in Schwann cell cytosol, 4 days",2.5%±0.7
same,increased expression of the gene encoding Akt3,Akt3 [9],3 fold
same,physical interaction between PDNF and Akt,Akt [10],coimmunoprecipitated PDNF and Akt
same,abundance of the mRNAs for other protein kinases,other protein kinases,unaltered
same,caspase-9 mRNA reduced in abundance,caspase-9,~5.0 fold
same,protection from H2O2-induced oxidative stress,Schwann cells [3]; Schwann cells transfected with plasmid encoding PDNF,protected from H2O2-induced oxidative stress
same,increase in the mRNA for Akt2,Akt2,~5.0 fold
same,FOXO mRNA reduced in abundance,[11],~4.0 fold
same,BAX mRNA reduced in abundance,[12],~2.6 fold
